From publication PMC4728560 (Scientific Reports, 2016)
Entries after “also recorded” stand apart in the source; their conditions may differ.

Key:
[1] = molecular target: T1, Bcl-xL (Homo sapiens, UniProt Q07817, DEL27-82); assay: Heterocomplex formation with Bcl-xL (native MS, SEC-MALS, gel filtration); assay type: binding; details: native MS: Bcl-xL(Δ27-81ΔCT), equimolar 100 μM, 30 °C, checked at 5 μM (for TCTP-R21A)
T1 construct: one containing the fragment 1-26, and the other the fragment 81-209; 6His (N, cleaved yes); made in house; host or cells: Escherichia coli BL21 (DE3) pRARE2
Method: (§1) When not specified, proteins tested for binding experiments were mixed at 100 μM, dialyzed against 10 mM CHES pH 9, 50 mM NaCl, 1 mM DTT or TCEP, depending on the analysis, and heated overnight at 30 °C.
(§2) For binding experiments, 100 to 200PL of protein mixture were loaded on a size exclusion chromatography (S200, GE Healthcare) column, while elution profiles were measured by UV absorption at 280 nm.
(§3) SEC-MALS experiments were performed on a multi-angle light scattering detector (miniDAWN TREOS, Wyatt Technologies) coupled in-line with SEC and an interferometric refractometer (Optilab T-rEX, Wyatt Technologies). See Supplementary Information for full details.
(§4) Prior to any mass spectrometry experiment, protein buffer was exchanged twice against a 50 mM ammonium acetate (NH4Ac) solution at pH 9.0 using microcentrifuge gel filtration columns (Zeba 0.5 ml, Thermo Scientific, Rockford, IL). Protein concentration was determined spectrophotometrically. […]
Supplementary Table 1. Measured molecular weights in denaturing conditions Sample Theoretical molecular Measured molecular Associated mass (Da) mass (Da) species […]
(§5) Gel filtration. For binding experiments, 100 to 200PL of protein mixture were loaded on a size exclusion chromatography (S200, GE Healthcare) column, while elution profiles were measured by UV absorption at 280nm. […]

[2] = test system: Bcl-xL-Y101K; assay: Heterocomplex formation with Bcl-xL-Y101K mutant; assay type: binding, human
Method: as §1, §2, §3, §4, §5
For MALS experiments, the molar mass was determined by construction of Debye plot using Zimm formalism (plot of K*c/R(T) as a function of sin2(T/2)) at 0.5 and 1sec data intervals, for Superdex S200 column. […]

T1 sequence (Q07817 with tags, fused parts or gaps DEL27-82): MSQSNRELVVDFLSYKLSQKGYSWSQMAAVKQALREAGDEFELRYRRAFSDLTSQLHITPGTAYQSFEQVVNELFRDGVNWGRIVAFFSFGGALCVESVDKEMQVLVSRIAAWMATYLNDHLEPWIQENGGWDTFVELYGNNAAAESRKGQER

TCTP: Translationally Controlled Tumor Protein (TCTP/tpt1), recombinant full-length
complex formation with Bcl-xL [1]: forms a heterotetramer with Bcl-xL; also recorded: forms heterotetrameric complexes with Bcl-xL
complex formation with Bcl-xL-Y101K mutant [2]: unable to form heterocomplexes
